Reference: patent publication US20130059292A1 (APTAMER SCIENCES, published 2013)

Molecular target: T1, epidermal growth factor receptor (EGFR) (human, UniProt P00533 25-1210)
T1 construct: Endogenous protein in A431 cell lysate; also called EGF receptor
Assay: Co-AP with EGFR aptamer-magnetic agarose beads from EGF-stimulated A431 cell lysate, Western blot

- binding result: binds
B1: PDK1 (enzyme, human, UniProt O15530 1-556, looked up)
chain: MARTTSQLYDAVPIQSSVVLCSCPSPSMVRTQTESSTPPGIPGGSRQGPAMDGTAAEPRPGAGSLQHAQPPPQPRKKRPEDFKFGKILGEGSFSTVVLARELATSREYAIKILEKRHIIKENKVPYVTRERDVMSRLDHPFFVKLYFTFQDDEKLYFGLSYAKNGELLKYIRKIGSFDETCTRFYTAEIVSALEYLHGKGIIHRDLKPENILLNEDMHIQITDFGTAKVLSPESKQARANSFVGTAQYVSPELLTEKSACKSSDLWALGCIIYQLVAGLPPFRAGNEYLIFQKIIKLEYDFPEKFFPKARDLVEKLLVLDATKRLGCEEMEGYGPLKAHPFFESVTWENLHQQTPPKLTAYLPAMSEDDEDCYGNYDNLLSQFGCMQVSSSSSSHSLSASDTGLPQRSGSNIEQYIHDLDSNSFELDLQFSEDEKRLLLEKQAGGNPWHQFVENNLILKMGPVDKRKGLFARRRQLLLTEGPHLYYVDPVNKVLKGEIPWSQELRPEAKNFKTFFVHTPNRTYYLMDPSGNAHKWCRKIQEVWRQRYQSHPDAAVQ
notes: also called phosphoinositide dependent kinase 1; PDPK1
